The supplement of paper PMC9170038

Test system: MS2 coat protein
Test: apparent KD of MS2 coat protein; designed switch direction (-1 OFF switch, 1 ON switch): -1; higher = weaker reporter binding
Method in brief: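 RNA switches sharing common flanks were transcribed by stalled E. coli RNA polymerase on Illumina chips. A doubling series of SNAP-549-labelled MS2 coat protein, from 0.7 or 1.5 nM to 3 µM, was applied in Tris-HCl pH 7.5 buffer with KCl, MgCl2, BSA, DTT, tRNA and Tween-20. Each step lasted 0.8–1.5 h at the bottom of the series and 10–20 min at the top. Normalised cluster fluorescence was curve-fitted, giving apparent KD as the per-design median over clusters.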

[1] = input ligand: microRNA oligo, concentration not stated
[2] = Eterna round: R95, input ligand: FMN 200 uM
[3] = Eterna round: R95, input ligand: microRNA oligo, concentration not stated
[4] = Eterna round: R95, input ligand: none

Sequence	apparent KD of MS2 coat protein (input ligand: FMN 200 uM)	apparent KD of MS2 coat protein [1]	apparent KD of MS2 coat protein (input ligand: none)	apparent KD of MS2 coat protein [2]	apparent KD of MS2 coat protein [3]	apparent KD of MS2 coat protein [4]
ACAUGAGGAUCACCCAUGUUCGGCUGGUCCGUCUCGGCUGUCGAGGAUAUAGCUCGGUGUCCGCGCUAGAAGGCGGGAGCUGGC [Aenatbe mod 66] (Eterna round: R96, puzzle: Exclusion NG 3)	0.106 µM	0.047 µM	0.09 µM	–	–	–
GCUGCGCGAGGAUAUGCGGUUUGCGCUGUGGCCCGUGGCGUACAUGAGGAUCACCCAUGUAGAAGGCGUGUGGG [Apr-15 SS2-55] (Eterna round: R96, puzzle: Exclusion 2)	0.0276 µM	0.0213 µM	0.0301 µM	–	–	–
GAGUUACAUGAGGAUCACCCAUGUGAGGAUAUGAGUCAGUCACGGUGACGUGGCUGACUCAGAAGGCACAAUGG [Mat - Exclusion 1 - JL Mod - D46] (Eterna round: R97, puzzle: Exclusion 1)	0.256 µM	–	0.38 µM	–	–	–
AACCUGGCUGUUCACAGGAACAUGAGGAUCACCCAUGUCGUGGGUAGAUCCCUCCCUGGGAAAUCUGCUCGUCUUAU [Cac Sensor turn off v1 sub13] (Eterna round: R97, puzzle: Sensor, turn-off variant 1)	0.0346 µM	–	0.0342 µM	–	–	–
CGUACUGAAGUUAGGAUAUUGUCUCGGAUACGAAACAAGAAGGGACAUGAGGAUCACCCAUGUAGACAGUACGA [Malc #30 mod 4] (puzzle: Brourd's mod of Exclusion 4)	–	–	–	0.0247 µM	0.0271 µM	0.0277 µM
AGCCACAGAGGAUAUACAUACAUCCAGUAGUUAAGAAUAUUACAUGAGGAUCACCCAUGUAGAAGGCUGUGGCA [Omei Ex2 BD B7] (Eterna round: R97, puzzle: Exclusion 2)	0.352 µM	–	0.0354 µM	–	–	–
ACUCGACAUGAGGAUCACCCAUGUGAGGAUAUGGCCUGUAUGGCGUGAGCUGGCUCAAUAAGAAGGCGCGUGGG [salish99_ex1_r4_051] (Eterna round: R97, puzzle: Exclusion 1)	0.235 µM	–	0.188 µM	–	–	–
AAGAGCAUCGGAGGAUAUGGAGCUGAAACGGCGCUAGAAGGCCGUGCAGUGUAACAUGAGGAUCACCCAUGUAGGGACCUCUAA [EX ng 1 4] (Eterna round: R96, puzzle: Exclusion NG 1)	0.244 µM	0.0829 µM	0.104 µM	–	–	–
UUUAAUUUUUUUUUUUUACAAGCUUUUUGCUCGUCUUAUACAUGAGGAUCACCCAUGUAGAUGGGAAGUAAAUUAUC [JMF 53] (puzzle: Sensor v3, turn-off variant 2)	–	–	–	0.0247 µM	0.2 µM	0.0245 µM
UUACCAUGCCGCCUAAUAGCUUUUUGCUCGUCUUAUAUUACAUGAGGAUCACCCAUGUAAAACAUGUGGCGUGACCU [JL ViennaUCT Maridi mod 1] (puzzle: Sensor v3, turn-off variant 2)	–	–	–	0.0798 µM	0.112 µM	0.0873 µM
CUCGUGCAGCAAAGCUGUACGAGUACAUGAGGAUCACCCAUGUAGGAUAUGGUACGCUUUGCGUGCUAGAAGGACGUGUGUAUG [Mat - Exclusion NG 3 - Mod of JL - D90] (Eterna round: R96, puzzle: Exclusion NG 3)	0.0754 µM	0.0269 µM	0.0396 µM	–	–	–
GGUUGGCGAGGAUAUACAUGAGGAUCACCCAUGUGGUCCUGUGGAAAAAAAAACCUUUGUAGAAGGCGCGGGUC [salish99_ex3_r4_032] (Eterna round: R97, puzzle: Exclusion 3)	0.415 µM	–	0.534 µM	–	–	–
UUGGUUGUGGUAGGAUAUCCGUUGGAAACCGUCGGAGAAGGACCACAGUCACUGGGUCUUUGUCUGGUGGACUGGAAUCACCAU [pwkr exNG1 F6.21] (Eterna round: R96, puzzle: Exclusion NG 1)	0.295 µM	0.157 µM	0.224 µM	–	–	–
